Laboratory results as given in paper PMC3264736.

Molecular target: Pitx2 homeodomain wild-type (UniProt Q99697 85-144)
Assay: ITC

B1: TAATCC consensus DNA (dsDNA)
DNA 1: GCTCTAATCCCCG
DNA 2: CGGGGATTAGAGC
- Kd: 66 nM
